Publication doi:10.1101/2022.07.09.499445 (bioRxiv, 2022)

Key:
[1] = target: QacA WT (tagged with GFP) (Staphylococcus aureus, UniProt P0A0J9); assay: immunostaining of cells or tissue
five unique clones = assay: flow cytometry on cells
[2] = target: ICab B7, displayed on the yeast cell surface (camel); assay: flow cytometry on cells
[3] = target: ICab A4, displayed on the yeast cell surface (camel); assay: flow cytometry on cells

Binder	binding result [1]	population shift (five unique clones)	Kd [2]	Kd [3]
ICab B7, purified (VHH) VHH: QVQLQESGGGSVQAGGSLRLSCAASGYTNSRKCMGWFRQIPGKEREGVAAIYGFGRGLILYADSVKGRFTISQDNAKNTVYLQMNSLKPEDTAMYYCAADSPGSCLSRSGYNYWGQGTQVTVSS	binds			
ICab A4, purified (VHH) VHH: QVQLQESGGGSVQTGGSLRLSCAASGYRYSDNCVGWFRQAPGREREAVATYNSGSSTWYADSVKGRFTISQDSAKSTVYLQMNNLKPEDTAMYYCAGRNRLGSYCYMTGDFAYWGQGTQVTVSS	binds			
QacA_(D411N)GFP (natural protein) MISFFTKTTDMMTSKKRWTALVVLAVSLFVVTMDMTILIMALPELVRELEPSGTQQLWIVDIYSLVLAGFIIPLSAFADKWGRKKALLTGFALFGLVSLAIFFAESAEFVIAIRFLLGIAGALIMPTTLSMIRVIFENPKERATALAVWSIASSIGAVFGPIIGGALLEQFSWHSAFLINVPFAIIAVVAGLFLLPESKLSKEKSHSWDIPSTILSIAGMIGLVWSIKEFSKEGLADIIPWVVIVLAITMIVIFVKRNLSSSDPMLDVRLFKKRSFSAGTIAAFMTMFAMASVLLLASQWLQVVEELSPFKAGLYLLPMAIGDMVFAPIAPGLAARFGPKIVLPSGIGIAAIGMFIMYFFGHPLSYSTMALALILVGAGMASLAVASALIMLETPTSKAGNAAAVEESMYNLGNVFGVAVLGSLSSMLYRVFLDISSFSSKGIVGDLAHVAEESVVGAVEVAKATGIKQLANEAVTSFNDAFVATALVGGIIMIIISIVVYLLIPKSLDITKQK		65 to 97%	100 nM	65 nM
